# Entries after “also recorded” stand apart in the source; their conditions may differ.
# Molecular target: Aβ40DI (Homo sapiens, UniProt P05067, D694N/E693Q)
# Assay: Affinity chromatography of human brain homogenate on Aβ40DI column
# Assay type: binding
# Procedure: For some embodiments of the invention, it may be advantageous to work with purified isolates of mutant and wild-type forms of Aβ. The affinity chromatography method used in the development of embodiments of the instant invention to obtain such isolates is exemplary: To prepare affinity resins, biotinylated wild-type Aβ40 peptide (Aβ40WT) and Aβ40DI were each redissolved in 20 mM NaHCO3 buffer (pH 8.5) and applied to ImmunoPure immobilized streptavidin beads (Pierce) following the manufacturer's instructions. Immobilized ligands were cross-linked with 2 mM bis(sulfosuccinimidyl) suberate (Pierce) for 30 min with rocking at room temperature in 20 mM NaHCO3 (pH 8.5). Crosslinking reactions were stopped by the addition of 1 M Tris-HCl (pH 7.4) to a final concentration of 20 mM. Homogenates of normal human brain frontal cortex (which may obtained as biopsies) were prepared in Tris-buffered saline (50 mM Tris-HCl and 200 mM NaCl (pH 7.4)) containing complete protease inhibitor cocktail (Roche). Homogenates were centrifuged at 12,000×g for 30 min, and supernatants were loaded onto Tris-buffered saline-equilibrated affinity columns (0.8×4 cm) under gravity flow. […] Fractions were analyzed by SDS-PAGE on 10-20% Tris/glycine gradient gels. […]
molecule,measurement,value
"myelin basic protein (protein, myelin basic protein, major form about 18.5 Kd (170 residues); purified protein) ASQKRPSQRHGSKYLATASTMDHARHGFLPRHRDTGILDSIGRFFGGDRGAPKRGSGKDSHHPARTAHYGSLPQKSHGRTQDENPVVHFFKNIVTPRTPPPSQGKGRGLSLSRFSWGAEGQRPGFGYGGRASDYKSAHKGFKGVDAQGTLSKIFKLGGRDSRSGSPMARR",capture on Aβ40DI affinity column,captured; also recorded: preferentially binds

# From patent US9217013B2, “Treatment of amyloidoses using myelin basic protein and fragments thereof” (The Research Foundation for the State University of New York, priority 2008, dated 2015)
